Source: US20250213686A1 (published 2025)

T1: Preproinsulin (PPI) peptide on HLA-DRA*01:01 / HLA-DRB1*04:01 (human)
T1 peptide: SLQPLALEGSLQKRG

T2: hypothetical protein ECU05_1220 [Encephalitozoon cuniculi GB-M1] (IGRP305_324_path19) peptide on … (human)
T2 peptide: QQKFLKNIDTHEEAE

T3: hypothetical protein GX51_07420 [Blastomyces parvus] (IGRP305_324_path16) peptide on HLA-DRA*01:01 / … (human)
T3 peptide: KYEFLPIPTYEEATS

T4: TPA: UDP-N-acetylglucosamine--N-acetylmuramyl-(pentapeptide) pyrophosphoryl-undecaprenol N-acetylglucosamine … (human)
T4 peptide: AARFLHIPYYTHECD

T5: hypothetical protein V495_01361 [Pseudogymnoascus sp. VKM F-4514 (FW-929)] (IGRP305_324_path15) peptide on … (human)
T5 peptide: SAMFLDIPTHPEEHS

T6: hypothetical protein KMI_05g09430 [Encephalitozoon hellem] (IGRP305_324_path18) peptide on HLA-DRA*01:01 / … (human)
T6 peptide: LSEFLKIPNHEITLL

T7: DUF4435 domain-containing protein [Bacillus toyonensis] (IGRP305_324_path5) peptide on HLA-DRA*01:01 / … (human)
T7 peptide: YDEVLQIPTHQENTQ

T8: WD domain, G-beta repeat-containing protein [Toxoplasma gondii ARI] (IGRP305_324_path20) peptide on … (human)
T8 peptide: ESLFLQLSTHTEASA

T9: undecaprenyldiphospho-muramoylpentapeptide beta-N-acetylglucosaminyltransferase [Treponema sp.] … (human)
T9 peptide: AAKFLHIPVFTHECD

T10: exodeoxyribonuclease V subunit beta [Chlamydia caviae] (IGRP305_324_path12) peptide on HLA-DRA*01:01 / … (human)
T10 peptide: CSPFLQIPSYEPIEY

T11: UDP-N-acetylglucosamine--N-acetylmuramyl-(pentapeptide) pyrophosphoryl-undecaprenol N-acetylglucosamine … (human)
T11 peptide: AASFLHIPYFTHECD

T12: hypothetical protein T551_03071 [Pneumocystis jirovecii RU7] (IGRP305_324_path17) peptide on HLA-DRA*01:01 / … (human)
T12 peptide: FTDFLNIPSYEELND

B1: T1D4 TCR (TCR, V domains shown)
Valpha: KDQVFQPSTVASSEGAVVEIFCNHSVSNAYNFFWYLHFPGCAPRLLVKGSKPSQQGRYNMTYERFSSSLLILQVREADAAVYYCAVEDLNQAGTALIFGKGTTLSVSS
Vbeta: KAGVTQTPRYLIKTRGQQVTLSCSPISGHRSVSWYQQTPGQGLQFLFEYFSETQRNKGNFPGRFSGRQFSNSRSEMNVSTLELGDSALYLCASSLALGQGNQQFFGPGTRLTVL
B2: T1D2 TCR (TCR, V domains shown)
Valpha: DQQVKQNSPSLSVQEGRISILNCDYTNSMFDYFLWYKKYPAEGPTFLISISSIKDKNEDGRFTVFLNKSAKHLSLHIVPSQPGDSAVYFCAATRTSGTYKYIFGTGTRLKVLA
Vbeta: NAGVTQTPKFRILKIGQSMTLQCTQDMNHNYMYWYRQDPGMGLKLIYYSVGAGITDKGEVPNGYNVSRSTTEDFPLRLELAAPSQTSVYFCASSPWGAGGTDTQYFGPGTRLTVL

Columns and labels:
[1] = biological target: T1, Preproinsulin (PPI) peptide on …; test: proliferation
[2] = biological target: T13, IGRP (islet-specific glucose-6-phosphatase-related protein) peptide on HLA-DRA*01:01 / HLA-DRB1*04:01 (human); test: proliferation
[3] = biological target: T13, IGRP (islet-specific …); test: upper end of the range; % CD137-expressing cells; LV-transduced CD4+ T cells 3:1 with peptide-pulsed HLA-DR4 K562 cells, 20 h; full-length, on cells
[4] = biological target: T2, hypothetical protein ECU05_1220 …; test: activation reporter or marker
[5] = biological target: T3, hypothetical protein GX51_07420 …; test: activation reporter or marker
[6] = biological target: T4, TPA: …; test: activation reporter or marker
[7] = biological target: T5, hypothetical protein V495_01361 …; test: activation reporter or marker
[8] = biological target: T6, hypothetical protein KMI_05g09430 …; test: activation reporter or marker
[9] = biological target: T7, DUF4435 domain-containing protein …; test: activation reporter or marker
[10] = biological target: T8, WD domain, G-beta repeat-containing …; test: activation reporter or marker
[11] = biological target: T9, undecaprenyldiphospho-muramoylpentapepti …; test: activation reporter or marker
[12] = biological target: T10, exodeoxyribonuclease V subunit beta …; test: activation reporter or marker
[13] = biological target: T11, UDP-N-acetylglucosamine--N-acetylmuramyl …; test: activation reporter or marker
[14] = biological target: T12, hypothetical protein T551_03071 …; test: activation reporter or marker
[15] = biological target: T13, IGRP (islet-specific …); test: upper end of the range; CD154 surface expression intensity; LV-transduced CD4+ T cells 3:1 with peptide-pulsed HLA-DR4 K562 cells, 20 h; full-length, on cells
[16] = biological target: T13, IGRP (islet-specific …); test: lower end of the range; % CD137-expressing cells; LV-transduced CD4+ T cells 3:1 with peptide-pulsed HLA-DR4 K562 cells, 20 h; full-length, on cells
[17] = biological target: T13, IGRP (islet-specific …); test: lower end of the range; CD154 surface expression intensity; LV-transduced CD4+ T cells 3:1 with peptide-pulsed HLA-DR4 K562 cells, 20 h; full-length, on cells

Binder	binding result [1]	binding result [2]	EC50 of peptide [3]	binding result [4]	binding result [5]	binding result [6]	binding result [7]	binding result [8]	binding result [9]	binding result [10]	binding result [11]	binding result [12]	binding result [13]	binding result [14]	EC50 of peptide [15]	EC50 of peptide [16]	EC50 of peptide [17]
B1	no recognition	no recognition	–	–	–	–	–	–	–	–	–	–	–	–	–	–	–
B2	–	–	≤ 0.1 µg/mL	no recognition	no recognition	no recognition	no recognition	no recognition	no recognition	no recognition	no recognition	no recognition	no recognition	no recognition	≤ 0.3 µg/mL	≥ 0.03 µg/mL	≥ 0.1 µg/mL
